Experimental data: the supplement of paper PMC9112550, “Optimization of the antimicrobial peptide Bac7 by deep mutational scanning” (BMC Biology, 2022)

What follows are sequences tested on Escherichia coli TOP10 (assay: shrunken log2 fold change of peptide-encoding DNA abundance (4.5 h post-induction vs induction); higher = less antimicrobial activity (less host growth inhibition)). Conditions: time post-induction: 4.5 h; library: site-saturation at positions 5, 18, 19, 20.
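Note: peptides expressed intracellularly from a pBAD plasmid library in pooled LB shake-flask culture, induced with 0.3% L-arabinose, DNA abundance read by NGS, three biological replicates, DESeq2 with apeglm shrinkage.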

First: RRIRMRPPRLPRPRPRPKTTPRP
Second: RRIRNRPPRLPRPRPRPCYGPRP
The “shrunken log2 fold change” value of the first is higher: 1.09 for the first, -0.102 for the second.

RRIRDRPPRLPRPRPRPEHGPRP and RRIRHRPPRLPRPRPRPNLWPRP are within 0.2 log units of each other in “shrunken log2 fold change” value: 0.0582 for the first, 0.173 for the second.

First: RRIRVRPPRLPRPRPRPDTWPRP
Second: RRIRVRPPRLPRPRPRPQDEPRP
The “shrunken log2 fold change” value of the first is lower: -0.407 for the first, -0.114 for the second.

RRIRNRPPRLPRPRPRPKGKPRP and RRIRSRPPRLPRPRPRPCHSPRP are within 0.2 log units of each other in “shrunken log2 fold change” value: 0.0351 for the first, 0.00316 for the second.

First: RRIRRRPPRLPRPRPRPGHGPRP
Second: RRIRNRPPRLPRPRPRPTLCPRP
The “shrunken log2 fold change” value of the first is higher: 1.04 for the first, 0.00464 for the second.

First: RRIRSRPPRLPRPRPRPIWMPRP
Second: RRIRERPPRLPRPRPRPSKHPRP
The “shrunken log2 fold change” value of the first is higher: -0.000641 for the first, -0.775 for the second.

Going from RRIRVRPPRLPRPRPRPLYLPRP to RRIRHRPPRLPRPRPRPAGAPRP, the “shrunken log2 fold change” value rises from -0.507 to 0.199.

RRIRGRPPRLPRPRPRPERMPRP and RRIRVRPPRLPRPRPRPKEFPRP are within 0.2 log units of each other in “shrunken log2 fold change” value: 0.251 for the first, 0.0951 for the second.

Going from RRIRVRPPRLPRPRPRPHAIPRP to RRIRFRPPRLPRPRPRPGATPRP, the “shrunken log2 fold change” value rises from -0.0728 to 0.357.

RRIRWRPPRLPRPRPRPIFNPRP and RRIRERPPRLPRPRPRPWKKPRP are within 0.2 log units of each other in “shrunken log2 fold change” value: -0.217 for the first, -0.0959 for the second.

First: RRIRVRPPRLPRPRPRPQRWPRP
Second: RRIRQRPPRLPRPRPRPKENPRP
The “shrunken log2 fold change” value of the first is higher: 0.496 for the first, 0.168 for the second.

RRIRLRPPRLPRPRPRPVLHPRP and RRIRPRPPRLPRPRPRPLQSPRP are within 0.2 log units of each other in “shrunken log2 fold change” value: -0.024 for the first, 0.0308 for the second.

Compared with RRIRCRPPRLPRPRPRPFYAPRP, RRIRVRPPRLPRPRPRPQCTPRP is higher in “shrunken log2 fold change” value: -0.813 for the first, -0.149 for the second.

Going from RRIRWRPPRLPRPRPRPAVPPRP to RRIRMRPPRLPRPRPRPNWWPRP, the “shrunken log2 fold change” value falls from 0.506 to -0.0136.

Going from RRIRFRPPRLPRPRPRPKYLPRP to RRIRIRPPRLPRPRPRPYSVPRP, the “shrunken log2 fold change” value rises from -0.451 to -0.07.

Going from RRIRHRPPRLPRPRPRPPKRPRP to RRIRGRPPRLPRPRPRPAINPRP, the “shrunken log2 fold change” value rises from -0.142 to 0.419.

Going from RRIRYRPPRLPRPRPRPSNDPRP to RRIRNRPPRLPRPRPRPFQDPRP, the “shrunken log2 fold change” value rises from -0.29 to -0.00135.

First: RRIRQRPPRLPRPRPRPELCPRP
Second: RRIRNRPPRLPRPRPRPTYVPRP
The “shrunken log2 fold change” value of the first is higher: 0.177 for the first, -0.143 for the second.

RRIRCRPPRLPRPRPRPNHCPRP and RRIRCRPPRLPRPRPRPNRSPRP are within 0.2 log units of each other in “shrunken log2 fold change” value: -0.551 for the first, -0.359 for the second.

Going from RRIRERPPRLPRPRPRPALPPRP to RRIRERPPRLPRPRPRPMFCPRP, the “shrunken log2 fold change” value falls from 0.439 to -0.168.

Compared with RRIRDRPPRLPRPRPRPQFNPRP, RRIRRRPPRLPRPRPRPPMFPRP is higher in “shrunken log2 fold change” value: -0.195 for the first, 0.26 for the second.

RRIRARPPRLPRPRPRPIDYPRP and RRIRVRPPRLPRPRPRPMTNPRP are within 0.2 log units of each other in “shrunken log2 fold change” value: -0.228 for the first, -0.256 for the second.

RRIRPRPPRLPRPRPRPPKDPRP and RRIRLRPPRLPRPRPRPPVNPRP are within 0.2 log units of each other in “shrunken log2 fold change” value: 0.225 for the first, 0.168 for the second.

Compared with RRIRTRPPRLPRPRPRPTGEPRP, RRIRGRPPRLPRPRPRPPCLPRP is higher in “shrunken log2 fold change” value: 0.178 for the first, 0.503 for the second.

RRIRDRPPRLPRPRPRPFDHPRP and RRIRFRPPRLPRPRPRPDPRPRP are within 0.2 log units of each other in “shrunken log2 fold change” value: 0.0299 for the first, 0.182 for the second.

Going from RRIRMRPPRLPRPRPRPKKGPRP to RRIRVRPPRLPRPRPRPSDEPRP, the “shrunken log2 fold change” value falls from 0.364 to -0.463.

Going from RRIRVRPPRLPRPRPRPIDMPRP to RRIRPRPPRLPRPRPRPSWPPRP, the “shrunken log2 fold change” value rises from -0.0698 to 0.359.

Going from RRIRLRPPRLPRPRPRPFMVPRP to RRIRSRPPRLPRPRPRPGPAPRP, the “shrunken log2 fold change” value rises from -0.606 to 0.682.

RRIRVRPPRLPRPRPRPICQPRP and RRIRRRPPRLPRPRPRPWVVPRP are within 0.2 log units of each other in “shrunken log2 fold change” value: -0.188 for the first, -0.0166 for the second.

RRIRNRPPRLPRPRPRPCPCPRP and RRIRMRPPRLPRPRPRPPYHPRP are within 0.2 log units of each other in “shrunken log2 fold change” value: -0.0945 for the first, -0.0913 for the second.

Compared with RRIRGRPPRLPRPRPRPLMKPRP, RRIRFRPPRLPRPRPRPTQWPRP is lower in “shrunken log2 fold change” value: 0.635 for the first, 0.267 for the second.

Going from RRIRARPPRLPRPRPRPRNIPRP to RRIRSRPPRLPRPRPRPDASPRP, the “shrunken log2 fold change” value rises from 0.157 to 0.495.

RRIRLRPPRLPRPRPRPWEAPRP and RRIRRRPPRLPRPRPRPSCKPRP are within 0.2 log units of each other in “shrunken log2 fold change” value: -0.229 for the first, -0.398 for the second.

Compared with RRIRNRPPRLPRPRPRPGGNPRP, RRIRGRPPRLPRPRPRPAAAPRP is higher in “shrunken log2 fold change” value: -0.0331 for the first, 2.36 for the second.

Going from RRIRDRPPRLPRPRPRPDYEPRP to RRIRKRPPRLPRPRPRPLTAPRP, the “shrunken log2 fold change” value rises from -0.0367 to 0.403.

Compared with RRIRPRPPRLPRPRPRPERHPRP, RRIRDRPPRLPRPRPRPDWDPRP is higher in “shrunken log2 fold change” value: 0.00192 for the first, 4.78 for the second.

First: RRIRYRPPRLPRPRPRPDFPPRP
Second: RRIRRRPPRLPRPRPRPNWKPRP
The “shrunken log2 fold change” value of the first is lower: -0.48 for the first, -0.0144 for the second.

Going from RRIRARPPRLPRPRPRPWFWPRP to RRIRLRPPRLPRPRPRPEMMPRP, the “shrunken log2 fold change” value rises from 0.544 to 2.57.

RRIRVRPPRLPRPRPRPTGQPRP and RRIRWRPPRLPRPRPRPKEGPRP are within 0.2 log units of each other in “shrunken log2 fold change” value: 0.526 for the first, 0.538 for the second.

First: RRIRARPPRLPRPRPRPEFLPRP
Second: RRIRGRPPRLPRPRPRPEWYPRP
The “shrunken log2 fold change” value of the first is higher: 0.465 for the first, 0.243 for the second.

Compared with RRIRYRPPRLPRPRPRPNKRPRP, RRIRARPPRLPRPRPRPPHCPRP is higher in “shrunken log2 fold change” value: -0.75 for the first, 0.521 for the second.

RRIRIRPPRLPRPRPRPQLIPRP and RRIRDRPPRLPRPRPRPNLDPRP are within 0.2 log units of each other in “shrunken log2 fold change” value: -0.146 for the first, -0.103 for the second.

Going from RRIRKRPPRLPRPRPRPGWTPRP to RRIRDRPPRLPRPRPRPGTMPRP, the “shrunken log2 fold change” value falls from 0.438 to -0.302.

Compared with RRIRPRPPRLPRPRPRPLDVPRP, RRIRDRPPRLPRPRPRPPSNPRP is higher in “shrunken log2 fold change” value: -0.146 for the first, 0.137 for the second.

Going from RRIRARPPRLPRPRPRPKFWPRP to RRIRYRPPRLPRPRPRPNDMPRP, the “shrunken log2 fold change” value falls from 0.696 to -1.16.

RRIRSRPPRLPRPRPRPEISPRP and RRIRFRPPRLPRPRPRPDCNPRP are within 0.2 log units of each other in “shrunken log2 fold change” value: -0.094 for the first, -0.179 for the second.

Compared with RRIRWRPPRLPRPRPRPSRVPRP, RRIRVRPPRLPRPRPRPPPPPRP is higher in “shrunken log2 fold change” value: 0.253 for the first, 1 for the second.

Going from RRIRMRPPRLPRPRPRPAFDPRP to RRIRYRPPRLPRPRPRPRDVPRP, the “shrunken log2 fold change” value falls from 0.629 to -0.0023.

Going from RRIRYRPPRLPRPRPRPPHEPRP to RRIRNRPPRLPRPRPRPGAPPRP, the “shrunken log2 fold change” value rises from -0.125 to 0.492.

RRIRTRPPRLPRPRPRPNLIPRP and RRIRRRPPRLPRPRPRPFCNPRP are within 0.2 log units of each other in “shrunken log2 fold change” value: -0.408 for the first, -0.259 for the second.

RRIRTRPPRLPRPRPRPRKIPRP and RRIRDRPPRLPRPRPRPMGNPRP are within 0.2 log units of each other in “shrunken log2 fold change” value: -0.0707 for the first, -0.107 for the second.

RRIRPRPPRLPRPRPRPAKCPRP and RRIRHRPPRLPRPRPRPCAYPRP are within 0.2 log units of each other in “shrunken log2 fold change” value: -0.172 for the first, -0.0102 for the second.

RRIRIRPPRLPRPRPRPANPPRP and RRIRFRPPRLPRPRPRPHLLPRP are within 0.2 log units of each other in “shrunken log2 fold change” value: -0.29 for the first, -0.428 for the second.

RRIRNRPPRLPRPRPRPMKIPRP and RRIRDRPPRLPRPRPRPPTSPRP are within 0.2 log units of each other in “shrunken log2 fold change” value: -0.121 for the first, 0.00594 for the second.

With RRIRTRPPRLPRPRPRPTLAPRP the “shrunken log2 fold change” value was 0.54.
